Measurements reported in paper PMC6351565.
Substitutions are numbered along the chain they refer to. Names and notes keep the numbering of the source.

T1: endogenous 14-3-3 (all isoforms included), P27348
T1 chain: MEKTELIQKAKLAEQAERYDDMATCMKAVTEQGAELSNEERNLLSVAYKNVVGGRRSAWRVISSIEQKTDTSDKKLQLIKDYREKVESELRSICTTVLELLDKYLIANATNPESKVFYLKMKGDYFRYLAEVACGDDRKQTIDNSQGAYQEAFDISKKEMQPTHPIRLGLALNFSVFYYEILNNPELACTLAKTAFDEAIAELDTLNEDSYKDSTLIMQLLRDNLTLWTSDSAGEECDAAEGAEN

B1: IRSp53-FLAG (wild type), natively phosphorylated, Q9UQB8-4 S452A; S453A; S454A; T455A (protein)
chain: MSLSRSEEMHRLTENVYKTIMEQFNPSLRNFIAMGKNYEKALAGVTYAAKGYFDALVKMGELASESQGSKELGDVLFQMAEVHRQIQNQLEEMLKSFHNELLTQLEQKVELDSRYLSAALKKYQTEQRSKGDALDKCQAELKKLRKKSQGSKNPQKYSDKELQYIDAISNKQGELENYVSDGYKTALTEERRRFCFLVEKQCAVAKNSAAYHSKGKELLAQKLPLWQQACADPSKIPERAVQLMQQVASNGATLPSALSASKSNLVISDPIPGAKPLPVPPELAPFVGRMSAQESTPIMNGVTGPDGEDYSPWADRKAAQPKSLSPPQSQSKLSDSYSNTLPVRKSVTPKNSYATTENKTLPRSSSMAAGLERNGRMRVKAIFSHAAGDNSTLLSFKEGDLITLLVPEARDGWHYGESEKTKMRGWFPFSYTRVLDSDGSDRLHMSLQQGKAAAAGNLLDKDDLAIPPPDYGAASRAFPAQTASGFKQRPYSVAVPAFSQGLDDYGARSMSSGSGTLVSTV
B2: IRSp53-FLAG (wild type), natively phosphorylated, Q9UQB8-4 T340A (protein)
chain: B1 chain with T340A, A452S, A453S, A454S, A455T
B3: IRSp53-FLAG (wild type), natively phosphorylated, Q9UQB8-4 T360A (protein)
chain: B1 chain with T360A, A452S, A453S, A454S, A455T
B4: IRSp53-FLAG (wild type), natively phosphorylated, Q9UQB8-4 S366A (protein)
chain: B1 chain with S366A, A452S, A453S, A454S, A455T
B5: IRSp53-FLAG (wild type), natively phosphorylated, Q9UQB8-4 T340A; T360A (protein)
chain: MSLSRSEEMHRLTENVYKTIMEQFNPSLRNFIAMGKNYEKALAGVTYAAKGYFDALVKMGELASESQGSKELGDVLFQMAEVHRQIQNQLEEMLKSFHNELLTQLEQKVELDSRYLSAALKKYQTEQRSKGDALDKCQAELKKLRKKSQGSKNPQKYSDKELQYIDAISNKQGELENYVSDGYKTALTEERRRFCFLVEKQCAVAKNSAAYHSKGKELLAQKLPLWQQACADPSKIPERAVQLMQQVASNGATLPSALSASKSNLVISDPIPGAKPLPVPPELAPFVGRMSAQESTPIMNGVTGPDGEDYSPWADRKAAQPKSLSPPQSQSKLSDSYSNALPVRKSVTPKNSYATTENKALPRSSSMAAGLERNGRMRVKAIFSHAAGDNSTLLSFKEGDLITLLVPEARDGWHYGESEKTKMRGWFPFSYTRVLDSDGSDRLHMSLQQGKSSSTGNLLDKDDLAIPPPDYGAASRAFPAQTASGFKQRPYSVAVPAFSQGLDDYGARSMSRNPFAHVQLKPTVTNDRCDLSAQGPEGREHGDGSARTLAGR

Biological target: T1, endogenous 14-3-3 (all isoforms …)
Assay: coimmunoprecipitation (quantified western blot)
Conditions: chain shown with the change; serum-starved cells; parent: est. 1.0; read off a plot

Row | ratio to parent | Binder
1 | 0.98 | B1
2 | 0.1 | B2
3 | 0.12 | B3
4 | 0.62 | B4
5 | 0.05 | B5
